From the supplement of paper PMC10724198
± gives the standard deviation of the averaged measurements.

System: Saccharomyces cerevisiae
Assay: protein stability index of tFT-peptide fusion (C-terminal peptide) (PSI (0-1 scale)); higher = more stable (slower turnover)
Details: genetic background: wild type; temperature: 30 C
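Further: PSI is a weighted mean of sequencing reads over stability bins, variants kept only with over 10 reads, mCherry proximal and sfGFP distal, peptide attached via GGGS linker.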

Row | Sequence | protein stability index
1 | PFPCPSLPPPFP | 0.716 ± 0.022
2 | PFPFSPPHSLVS | 0.743 ± 0.027
3 | PFPHPPPPSPTP | 0.687 ± 0.021
4 | PFPPPHTPLPPS | 0.791 ± 0.016
5 | PFPPPPRLHLPP | 0.648 ± 0.04
6 | PFPPPSAPPPSP | 0.71 ± 0.015
7 | PFPRPLSPLPFR | 0.75 ± 0.074
8 | PFPSIPLPPPSR | 0.703 ± 0.03
9 | PFQPPSLIPSRH | 0.746 ± 0.026
10 | PFSSPDLLRCPH | 0.752 ± 0.024
11 | PFSVDLPWPPWE | 0.806 ± 0.053
12 | PFSVQLPDVDCL | 0.715 ± 0.16
13 | PFSWRPLSSPTA | 0.757 ± 0.004
14 | PFVIKSWSYVTR | 0.605 ± 0.02
15 | PFVSGLSGQHEQ | 0.637 ± 0.011
16 | PFVSGWEKGRSF | 0.757 ± 0.033
17 | PFYTNSSFCSLT | 0.6677 ± 0.00075
18 | PGASAKPHSSAN | 0.712 ± 0.031
19 | PGGQLRSHPPNV | 0.718 ± 0.013
20 | PGIHRPLAVEDL | 0.676 ± 0.032
21 | PGKSGRKLVSSG | 0.681 ± 0.012
22 | PGLDPFHGMNLS | 0.6906 ± 0.0027
23 | PGLQFPIWGVKG | 0.71 ± 0.045

Row | Sequence | protein stability index
24 | PGPPPGTDAFQH | 0.718 ± 0.12
25 | PGRSMCITLVKT | 0.595 ± 0.0078
26 | PGSADGPATYPL | 0.65 ± 0.03
27 | PGSLVLSVVDLV | 0.683 ± 0.056
28 | PGSQPPFVPPPR | 0.604 ± 0.019
29 | PGSSLAPAPPPP | 0.683 ± 0.0088
30 | PGSYLDAIVYHR | 0.701 ± 0.01
31 | PGTGGHKRASPV | 0.6293 ± 0.0016
32 | PGWGPLVARRFV | 0.735 ± 0.025
33 | PGYFGHVKLSCS | 0.646 ± 0.023
34 | PHAAERRKPCAP | 0.768 ± 0.011
35 | PHAPCPRPSVTV | 0.625 ± 0.086
36 | PHAPHFSRSIPS | 0.745 ± 0.027
37 | PHAPQSPGWLHG | 0.7 ± 0.028
38 | PHASLLPPSLSR | 0.728 ± 0.0085
39 | PHASRRPPTLLC | 0.514 ± 0.01
40 | PHATPPPTRPPS | 0.777 ± 0.062
41 | PHFSSLPWAPPG | 0.749 ± 0.041
42 | PHGSLPTRLPGP | 0.689 ± 0.035
43 | PHIRPPQCTRPI | 0.737 ± 0.015
44 | PHLANLFTWSSC | 0.66 ± 0.092
45 | PHLPPLPPAPPP | 0.724 ± 0.12
46 | PHLPPRPFPTAP | 0.757 ± 0.063

Row | Sequence | protein stability index
47 | PHNPFPTRTPPP | 0.71 ± 0.039
48 | PHNRSNSWPNPR | 0.714 ± 0.054
49 | PHPERLLCPPYP | 0.68 ± 0.024
50 | PHPGQSAPPRPP | 0.654 ± 0.038
51 | PHPPGFGPGRTL | 0.698 ± 0.068
52 | PHPPLPLSPPPP | 0.72 ± 0.0084
53 | PHPPPAPDAPCV | 0.683 ± 0.036
54 | PHPPPLPPLPSP | 0.721 ± 0.053
55 | PHPPPPRPPPRS | 0.642 ± 0.067
56 | PHPSATPTPVPP | 0.7001 ± 0.0017
57 | PHPSPGAALFAN | 0.643 ± 0.019
58 | PHPTLATPPRRR | 0.667 ± 0.096
59 | PHPTTPPAPRPR | 0.728 ± 0.0095
60 | PHRAPPRETRLG | 0.837 ± 0.015
61 | PHSKADISQIGG | 0.653 ± 0.0072
62 | PHTEPVIVACSG | 0.601 ± 0.033
63 | PHTPSRPLSPAP | 0.713 ± 0.063
64 | PILFLGGSMGER | 0.676 ± 0.011
65 | PIPPPPPPPHSP | 0.779 ± 0.043
66 | PIPPPPPPPPDP | 0.652 ± 0.017
67 | PIPPSTRSLHPL | 0.668 ± 0.027
68 | PIQNHRFLPIVL | 0.713 ± 0.036
69 | PIRAITQRSDGG | 0.682 ± 0.045

Row | Sequence | protein stability index
70 | PISIAVPCVLPP | 0.6654 ± 0.00093
71 | PISSYPPLPAPR | 0.718 ± 0.06
72 | PIYQTYSRHSYL | 0.683 ± 0.0089
73 | PKLAELKKISDR | 0.68 ± 0.063
74 | PKLSKLLQHSNV | 0.658 ± 0.048
75 | PLAPPFSPPPPP | 0.645 ± 0.0082
76 | PLAPPPPSSPPV | 0.675 ± 0.083
77 | PLCFSLFFPFRP | 0.657 ± 0.0099
78 | PLCPPPPTSPPP | 0.666 ± 0.031
79 | PLCPPYPPGRVP | 0.6841 ± 0.0021
80 | PLCRPARPRHHS | 0.7256 ± 0.0015
81 | PLCSPALHGPPP | 0.736 ± 0.033
82 | PLCSPPSPASNL | 0.714 ± 0.067
83 | PLDTPYMAYNSD | 0.71 ± 0.033
84 | PLECHTGVLGRL | 0.709 ± 0.0086
85 | PLEKASMTLWGR | 0.691 ± 0.05
86 | PLFAYCLIFPML | 0.533 ± 0.018
87 | PLFGLQTPTLHR | 0.712 ± 0.057
88 | PLFHLYRSSFPF | 0.721 ± 0.029
89 | PLFPRPFPPPRS | 0.717 ± 0.0091
90 | PLFSLVSLLLPI | 0.628 ± 0.036
91 | PLHLPPPFSPRP | 0.7333 ± 0.0063
92 | PLHPLTLPHLPT | 0.665 ± 0.092

Row | Sequence | protein stability index
93 | PLHSRPTRPKLE | 0.71 ± 0.092
94 | PLIASPQPPFPT | 0.6692 ± 0.0036
95 | PLKKLTRIIPKL | 0.747 ± 0.1
96 | PLLALANSPLYR | 0.6708 ± 0.005
97 | PLLCPASIHVTL | 0.679 ± 0.046
98 | PLLEGRRRKSGG | 0.635 ± 0.02
99 | PLLFGGGGVSVL | 0.70247 ± 0.00036
100 | PLLFPSSPLPPS | 0.63 ± 0.036
101 | PLLGLFTRYFDT | 0.7 ± 0.088
102 | PLLLLLPALPPL | 0.679 ± 0.026
103 | PLLPILTSPPRR | 0.71 ± 0.029
104 | PLLPPLSPPLPS | 0.7 ± 0.0078
105 | PLLPPPLFSLLR | 0.681 ± 0.015
106 | PLLPPPPSLRSP | 0.747 ± 0.1
107 | PLLPRPPPLPPP | 0.703 ± 0.055
108 | PLLRPTRLLPET | 0.699 ± 0.093
109 | PLLTPLCSVSHS | 0.689 ± 0.0072
110 | PLNALLHSNPDK | 0.711 ± 0.1
111 | PLPCSPRLRLSF | 0.646 ± 0.036
112 | PLPLFPLPPVAP | 0.66 ± 0.012
113 | PLPLPPLPPPLP | 0.656 ± 0.021
114 | PLPLPPPPHCLS | 0.702 ± 0.027
115 | PLPLSSSLHSQR | 0.702 ± 0.0084

Row | Sequence | protein stability index
116 | PLPPAARPPSAL | 0.729 ± 0.015
117 | PLPPAPPPPPPP | 0.728 ± 0.029
118 | PLPPLPLAPSLP | 0.708 ± 0.065
119 | PLPPPFLHLPPP | 0.683 ± 0.036
120 | PLPPPGRPPLLP | 0.639 ± 0.12
121 | PLPPPPFSVSPP | 0.724 ± 0.012
122 | PLPPPPLPPLPP | 0.702 ± 0.028
123 | PLPPPPRPRLPL | 0.764 ± 0.047
124 | PLPPPPSPLPHF | 0.692 ± 0.013
125 | PLPPPPVPPTPS | 0.606 ± 0.012
126 | PLPPPVPPPPPP | 0.66 ± 0.017
127 | PLPPRLPSPPSS | 0.742 ± 0.044
128 | PLPPRPAPPSSS | 0.681 ± 0.015
129 | PLPPRPPSPPPR | 0.699 ± 0.037
130 | PLPPSPYPSPSP | 0.661 ± 0.028
131 | PLPRLTRPSPPR | 0.681 ± 0.067
132 | PLPRPPPPPPPS | 0.7 ± 0.048
133 | PLPSAPVPPSAS | 0.71002 ± 0.0003
134 | PLQPRVLPSPRR | 0.688 ± 0.0011
135 | PLRISPPPAPHP | 0.7251 ± 0.0025
136 | PLRSFSLRPFPL | 0.775 ± 0.06
137 | PLRVPPPPCSRS | 0.722 ± 0.1
138 | PLSCSPPLLSPS | 0.678 ± 0.0089

Row | Sequence | protein stability index
139 | PLSLAPPPLPPY | 0.671 ± 0.061
140 | PLSLFPSSQCWS | 0.771 ± 0.038
141 | PLSPPPLPFPLL | 0.589 ± 0.0018
142 | PLSPSAAPSAPS | 0.737 ± 0.1
143 | PLSTCLAARCPL | 0.725 ± 0.085
144 | PLSTFSLSSFTV | 0.691 ± 0.045
145 | PLTFGLGPVNLP | 0.683 ± 0.054
146 | PLTPCPSATPAY | 0.648 ± 0.021
147 | PLTPVRCSICSV | 0.64 ± 0.037
148 | PLTRPTDNNPSN | 0.774 ± 0.081
149 | PLVFFAGLFLVD | 0.509 ± 0.041
150 | PLVSGMLTSHLA | 0.6613 ± 0.0014
151 | PLVSPPPLPHRP | 0.69 ± 0.02
152 | PLYLAYKDTLLS | 0.69 ± 0.035
153 | PLYPPLPTSLSS | 0.769 ± 0.027
154 | PLYPPPVNIPPT | 0.81 ± 0.067
155 | PLYSPPPHRYLL | 0.653 ± 0.019
156 | PMLGMSTLGDRF | 0.657 ± 0.038
157 | PMNVSDPRKVGR | 0.556 ± 0.037
158 | PNCAPLTAPRRR | 0.7159 ± 0.0069
159 | PNCTLVDSCWSI | 0.699 ± 0.022
160 | PNPPNSSNPPSP | 0.7013 ± 0.0031
